From patent US20020142982A1 (published 2002)

Target: T1, beta-catenin (endogenous, HUVEC) (human (HUVEC), UniProt P35222 2-781)
T1 construct: also called β-catenin
T1 sequence (looked up): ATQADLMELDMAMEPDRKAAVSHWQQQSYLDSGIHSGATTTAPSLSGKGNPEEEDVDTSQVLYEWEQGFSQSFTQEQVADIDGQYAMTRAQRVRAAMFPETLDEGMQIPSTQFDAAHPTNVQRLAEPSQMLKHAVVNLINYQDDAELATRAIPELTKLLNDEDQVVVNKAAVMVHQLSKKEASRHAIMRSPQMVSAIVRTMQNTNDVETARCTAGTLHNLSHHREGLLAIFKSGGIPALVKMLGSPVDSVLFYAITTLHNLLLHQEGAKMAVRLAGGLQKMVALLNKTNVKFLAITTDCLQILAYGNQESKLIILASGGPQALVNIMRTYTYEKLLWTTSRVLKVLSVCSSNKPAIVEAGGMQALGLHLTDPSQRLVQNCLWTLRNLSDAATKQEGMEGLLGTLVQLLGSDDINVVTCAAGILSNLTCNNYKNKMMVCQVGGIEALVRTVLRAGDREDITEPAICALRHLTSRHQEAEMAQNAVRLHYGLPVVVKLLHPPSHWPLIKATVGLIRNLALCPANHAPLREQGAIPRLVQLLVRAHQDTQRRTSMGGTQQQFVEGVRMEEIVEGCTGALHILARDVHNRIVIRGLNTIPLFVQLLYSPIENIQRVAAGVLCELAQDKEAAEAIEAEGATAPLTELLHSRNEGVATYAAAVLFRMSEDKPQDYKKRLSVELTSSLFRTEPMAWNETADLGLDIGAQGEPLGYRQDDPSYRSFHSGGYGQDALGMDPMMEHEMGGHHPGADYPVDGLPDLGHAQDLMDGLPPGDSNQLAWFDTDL
Assay: co-immunoprecipitation of 35S-labelled, DSP cross-linked detergent-insoluble HUVEC extracts
Procedure: HUVEC were labeled to steady state with ^35Smethionine (250 μCi/mL, NEN DuPont) for 24 hours. After stimulation with 500 nM SPP for 1 hour, cells were fractionated with 0.5% TX-100. After centrifugation (15,000 g, 15 minutes), the protein complexes in detergent-insoluble fractions were cross-linked with 0.5 mM Dithiobis[succinimidyl propionate] (DSP; Pierce Chemical Co., Rockford, Ill.) (Hinck, L., J. Cell Biol. 125: 1327-1340 (1994)), and extracted with 1% TX-100-1% SDS as described above. Cell extracts were then immunoprecipitated with antibodies to VE cadherin, β-catenin, γ-catenin, or p120 Src (p120^cas, Transduction Laboratories). The immunoprecipitated complexes were then reduced by incubating in sample buffer containing 2% β-mercaptoethanol at 95° C. for 10 minutes, 10 μL dithiothreitol (1 M) was added to each gel lanes before protein separation by SDS-PAGE.

B1: gamma-catenin (endogenous, HUVEC) (other, human (HUVEC), UniProt P14923 1-745, looked up)
chain: MEVMNLMEQPIKVTEWQQTYTYDSGIHSGANTCVPSVSSKGIMEEDEACGRQYTLKKTTTYTQGVPPSQGDLEYQMSTTARAKRVREAMCPGVSGEDSSLLLATQVEGQATNLQRLAEPSQLLKSAIVHLINYQDDAELATRALPELTKLLNDEDPVVVTKAAMIVNQLSKKEASRRALMGSPQLVAAVVRTMQNTSDLDTARCTTSILHNLSHHREGLLAIFKSGGIPALVRMLSSPVESVLFYAITTLHNLLLYQEGAKMAVRLADGLQKMVPLLNKNNPKFLAITTDCLQLLAYGNQESKLIILANGGPQALVQIMRNYSYEKLLWTTSRVLKVLSVCPSNKPAIVEAGGMQALGKHLTSNSPRLVQNCLWTLRNLSDVATKQEGLESVLKILVNQLSVDDVNVLTCATGTLSNLTCNNSKNKTLVTQNSGVEALIHAILRAGDKDDITEPAVCALRHLTSRHPEAEMAQNSVRLNYGIPAIVKLLNQPNQWPLVKATIGLIRNLALCPANHAPLQEAAVIPRLVQLLVKAHQDAQRHVAAGTQQPYTDGVRMEEIVEGCTGALHILARDPMNRMEIFRLNTIPLFVQLLYSSVENIQRVAAGVLCELAQDKEAADAIDAEGASAPLMELLHSRNEGTATYAAAVLFRISEDKNPDYRKRVSVELTNSLFKHDPAAWEAAQSMIPINEPYGDDMDATYRPMYSSDVPLDPLEMHMDMDGDYPIDTYSDGLRPPYPTADHMLA
notes: also called γ-catenin
- binding result: no binding
